Key:
HUVEC [1] = assay: Inhibition of VEGF165-induced or mini TyrRS-induced HUVEC migration; assay type: cell-based, human; settings: for inhibition of VEGF165-induced HUVEC chemotaxis / inhibition of mini TyrRS-induced HUVEC chemotaxis: 500 nM TrpRS; for inhibition of VEGF165-induced HUVEC chemotaxis: 0.5 nM VEGF165; for inhibition of mini TyrRS-induced HUVEC chemotaxis: 50 nM mini TyrRS; for inhibition of HUVEC migration: as described in Example 14, inducer not stated
Method: Cell migration assays were performed using the modified Boyden chamber (6.5 mm Transwells) with polycarbonate membranes (8.0 μm pore size) (Costar Corp., Cambridge, Mass.) (Masood et al., 1999, Blood 93:1038-44). Wells were coated overnight with 25 μg/mL human fibronectin (Biosource International, Camarillo, Calif.) in PBS and then allowed to air-dry. HUVECs were suspended in Dulbecco's modified Eagle's medium (DMEM) (Gibco-BRL, Gaithersburg, Md.) containing 0.1% BSA (Sigma) and 2×10^5 cells per well were added to the upper chamber. The chemotactic stimulus (50 nM of a given TyrRS molecule or 0.5 nM of human vascular endothelial growth factor-165 (VEGF165) (Biosource International, Camarillo, Calif.)) was placed in the lower chamber, and the cells were allowed to migrate for 6 hours at 37° C. in a 6% CO2 incubator. After incubation, non-migrant cells were removed from the upper face of the Transwell membrane with a cotton swab and migrant cells, those attached to the lower face, were fixed in methanol and visualized with the HEMACOLOR® stain set (EM Diagnostic Systems, Gibbstown, N.J.). Migrating cells were counted in high-power fields (HPFs). HUVECs were suspended in media with the inhibitor for 30 minutes before placement in the chamber. Each determination shown in FIG. 16 represents the average of nine HPF measurements.
The angiostatic activity of TrpRS was next evaluated in experiments testing the ability of human full-length TrpRS and human mini TrpRS to inhibit human VEGF165-induced or human mini TyrRS-induced cell migration. Cell migration assays were performed as described in Example 11 with full-length TrpRS or mini TrpRS added to VEGF165-induced or mini TyrRS-induced HUVEC samples. HUVEC samples were treated with 0.5 nM VEGF165, 50 nM mini TyrRS, and 500 nM of a given TrpRS. Four measurements of chemotaxis were done for each protein. Each determination shown in FIG. 19 represents the average of nine HPF measurements. […] In contrast, human full-length TrpRS had no effect on VEGF165-induced or mini TyrRS-induced HUVEC chemotaxis.

chick CAM = assay: Inhibition of VEGF165-induced or mini TyrRS-induced angiogenesis in chick CAM; assay type: in vivo; settings: 3 μg inhibitor; for inhibition of VEGF165-induced angiogenesis in chick CAM: 25 ng VEGF165, 72 hours; for inhibition of mini TyrRS-induced angiogenesis in chick CAM: 250 ng mini TyrRS, 72 hours
Method: In vivo angiogenesis assays were conducted in chick chorioallantoic membrane (CAM) (Nicolaou et al., 1998, Bioorg. Med. Chem. 6:1185-208). Ten-day-old chick embryos were purchased from Mcintyre Poultry (Lakeside, Calif.) and were incubated at 37° C. and 70% humidity. A small hole was made with a small crafts drill (Dremel, Emerson Electric, Racine, Wis.) directly over the air sac at the end of the egg. The embryos were candled to determine a location to drill a second hole directly over embryonic blood vessels. […] A window was cut in the eggshell over the dropped CAM, exposing the CAM to direct access for experimental manipulation. Cortisone acetate-treated 5 mm filter disks were soaked with a particular protein sample (25 ng of VEGF165 or 250 ng of a given TyrRS molecule) and the filter disks added directly to the CAMs, which were relatively devoid of preexisting blood vessels. The windows were sealed with sterile tape and incubated at 37° C. At 0, 24, and 48 hours following incubation, 3 μg of […] (IP-10) (R & D Systems, Minneapolis, Minn.) was topically applied to the filter disks. After 72 hours, the CAM tissue associated with the filter disk was harvested and quantified using a stereomicroscope. Angiogenesis was assessed as the number of visible blood vessel branch points within the defined area of the filter disks. Each determination shown in FIG. 17 represents the mean from 5-8 embryos.
The angiostatic activity of human full-length TrpRS and human mini TrpRS was also analyzed in in vivo angiogenesis assays conducted in chick CAM. In vivo angiogenesis assays were performed as described in Example 12 with 3 μg of full-length TrpRS or mini TrpRS added to VEGF165-induced or mini TyrRS-induced CAM tissue.

HUVEC [2] = assay: Inhibition of VEGF165-induced cell proliferation; assay type: cell-based, human; settings: 2 μM TrpRS, 2 nM VEGF165, 72 hours
Method: The angiostatic activity of TrpRS was first evaluated in experiments testing the ability of human full-length TrpRS and human mini TrpRS to inhibit human VEGF165-induced cell proliferation. Tissue culture-treated 96-well plates (Corning Costar Corp., Cambridge, Mass.) were coated with 0.1% gelatin (Sigma) overnight. Cells were then seeded in the gelatinized plates at a density of 5×10^3 cells per well in DMEM medium (Gibco-BRL) containing heat-inactivated fetal bovine serum (FBS) (10%, Sigma) and penicillin/streptomycin (100 units/mL-100 μg/mL, Sigma). The following day, the cells were treated with 2 μM of a given TrpRS in the presence of 2 nM VEGF165. After 72 hours of incubation, assays were performed by using the […] 96® aqueous one-solution cell proliferation assay kit (Promega, Madison, Wis.). Results of the inhibition assay are shown in FIG. 18 as the percentage of net proliferation of VEGF165. Each determination shown represents the mean of five experiments.

Molecule | inhibition of VEGF165-induced HUVEC chemotaxis (HUVEC [1]) | inhibition of mini TyrRS-induced HUVEC chemotaxis (HUVEC [1]) | inhibition of VEGF165-induced angiogenesis in chick CAM (chick CAM) | inhibition of mini TyrRS-induced angiogenesis in chick CAM (chick CAM) | inhibition of VEGF165-induced cell proliferation (HUVEC [2]) | inhibition of HUVEC migration (HUVEC [1])
full-length TrpRS: recombinant human tryptophanyl-tRNA synthetase, 471 amino acid residues (protein, His6 tag; Human full-length TrpRS in pET20B, recombinant human tryptophanyl-tRNA synthetase, 471 amino acid residues) MPNSEPASLLELFNSIATQGELVRSLKAGNASKDEIDSAVKMLVSLKMSYKAAAGEDYKADCPPGNPAPTSNHGPDATEAEEDFVDPWTVQTSSAKGIDYDKLIVRFGSSKIDKELINRIERATGQRPHHFLRRGIFFSHRDMNQVLDAYENKKPFYLYTGRGPSSEAMHVGHLIPFIFTKWLQDVFNVPLVIQMTDDEKYLWKDLTLDQAYGDAVENAKDIIACGFDINKTFIFSDLDYMGMSSGFYKNVVKIQKHVTFNQVKGIFGFTDSDCIGKISFPAIQAAPSFSNSFPQIFRDRTDIQCLIPCAIDQDPYFRMTRDVAPRIGYPKPALLHSTFFPALQGAQTKMSASDPNSSIFLTDTAKQIKTKVNKHAFSGGRDTIEEHRQFGGNCDVDVSFMYLTFFLEDDDKLEQIRKDYTSGAMLTGELKKALIEVLQPLIAEHQARRKEVTDEIVKEFMTPRKLSFDFQKLAAALEHHHHHH | had no effect | had no effect | no observable angiostatic activity | no observable angiostatic activity | exhibited no angiostatic activity | 
inactive TrpRS: minor PMN elastase fragment of TrpRS, amino-terminal residue at position 94 of full-length TrpRS (protein, His6 tag; Human inactive TrpRS in pET20B, minor PMN elastase fragment of TrpRS, amino-terminal residue at position 94 of full-length TrpRS) MSAKGIDYDKLIVRFGSSKIDKELINRIERATGQRPHHFLRRGIFFSHRDMNQVLDAYENKKPFYLYTGRGPSSEAMHVGHLIPFIFTKWLQDVFNVPLVIQMTDDEKYLWKDLTLDQAYGDAVENAKDIIACGFDINKTFIFSDLDYMGMSSGFYKNVVKIQKHVTFNQVKGIFGFTDSDCIGKISFPAIQAAPSFSNSFPQIFRDRTDIQCLIPCAIDQDPYFRMTRDVAPRIGYPKPALLHSTFFPALQGAQTKMSASDPNSSIFLTDTAKQIKTKVNKHAFSGGRDTIEEHRQFGGNCDVDVSFMYLTFFLEDDDKLEQIRKDYTSGAMLTGELKKALIEVLQPLIAEHQARRKEVTDEIVKEFMTPRKLSFDFQKLAAALEHHHHHH |  |  | did not exhibit angiostatic activity | did not exhibit angiostatic activity | did not exhibit angiostatic activity | did not exhibit angiostatic activity
mini TrpRS: truncated TrpRS, residues 48-471 of full-length TrpRS (protein, His6 tag; Human mini TrpRS in pET20B, truncated TrpRS, residues 48-471 of full-length TrpRS) MSYKAAAGEDYKADCPPGNPAPTSNHGPDATEAEEDFVDPWTVQTSSAKGIDYDKLIVRFGSSKIDKELINRIERATGQRPHHFLRRGIFFSHRDMNQVLDAYENKKPFYLYTGRGPSSEAMHVGHLIPFIFTKWLQDVFNVPLVIQMTDDEKYLWKDLTLDQAYGDAVENAKDIIACGFDINKTFIFSDLDYMGMSSGFYKNVVKIQKHVTFNQVKGIFGFTDSDCIGKISFPAIQAAPSFSNSFPQIFRDRTDIQCLIPCAIDQDPYFRMTRDVAPRIGYPKPALLHSTFFPALQGAQTKMSASDPNSSIFLTDTAKQIKTKVNKHAFSGGRDTIEEHRQFGGNCDVDVSFMYLTFFLEDDDKLEQIRKDYTSGAMLTGELKKALIEVLQPLIAEHQARRKEVTDEIVKEFMTPRKLSFDFQKLAAALEHHHHHH | inhibited | inhibited | inhibited | inhibited | able to inhibit human VEGF165-induced cell proliferation | 
supermini TrpRS: residues 71-471 of full-length TrpRS, major PMN elastase fragment (protein, His6 tag; Human supermini TrpRS in pET20B, residues 71-471 of full-length TrpRS, major PMN elastase fragment) MSNHGPDATEAEEDFVDPWTVQTSSAKGIDYDKLIVRFGSSKIDKELINRIERATGQRPHHFLRRGIFFSHRDMNQVLDAYENKKPFYLYTGRGPSSEAMHVGHLIPFIFTKWLQDVFNVPLVIQMTDDEKYLWKDLTLDQAYGDAVENAKDIIACGFDINKTFIFSDLDYMGMSSGFYKNVVKIQKHVTFNQVKGIFGFTDSDCIGKISFPAIQAAPSFSNSFPQIFRDRTDIQCLIPCAIDQDPYFRMTRDVAPRIGYPKPALLHSTFFPALQGAQTKMSASDPNSSIFLTDTAKQIKTKVNKHAFSGGRDTIEEHRQFGGNCDVDVSFMYLTFFLEDDDKLEQIRKDYTSGAMLTGELKKALIEVLQPLIAEHQARRKEVTDEIVKEFMTPRKLSFDFQKLAAALEHHHHHH |  |  | capable of inhibiting | capable of inhibiting | capable of inhibiting HUVEC proliferation and migration | capable of inhibiting HUVEC proliferation and migration
